Data from PMC10836720.

Molecular target: A. baumannii 118362 Family 2A encapsulin shell protein (J517_0527) (Acinetobacter baumannii 118362)
Test: cryo-EM structure

“A. baumannii 118362 Family 2A encapsulin shell protein (J517_0527) (natural protein)” was tested, and the stoichiometry N was 60 subunits.
